Assay results published in patent publication US20220135661A1 (University of Pennsylvania, published 2022).
One block for each binder: values may come before it.

Legend:
[1] = target: T1, recombinant human preformed α-Synuclein fibrils (human, UniProt P37840 1-140); assay: cell-based or functional assay
[2] = target: recombinant mouse preformed α-Synuclein fibrils (mouse, UniProt O55042 1-140); assay: cell-based or functional assay
[3] = target: human α-Synuclein (form not stated) (human, UniProt P37840 1-140); assay: direct ELISA; human αSyn against mouse αSyn as reference
[4] = target: T1, recombinant human preformed α-Synuclein …; assay: sandwich ELISA, mAb coated, MJF-R1 reporter; human PFFs against human monomer as reference
Method: FIG. 1A is a pair of graphs depicting the affinity of mAb Syn9063.26.22 for human monomeric (top) and fibrillar (PFF) (bottom) α-Syn measured by sandwich ELISA. 384-well plates were coated with 0.3 μg of the indicated mAb. After blocking, these were incubated with various concentrations of α-Syn monomer or PFFs (expressed as monomer equivalent concentration) as indicated. MJF-R1 was used as a reporter antibody to determine affinity for each form of α-Syn. FIG. 1B is a pair of graphs depicting the affinity of mAb Syn9048.04.07 for human monomeric (top) and fibrillar (PFF) (bottom) α-Syn measured by sandwich ELISA. 384-well plates were coated with 0.3 μg of the indicated mAb. After blocking, these were incubated with various concentrations of α-Syn monomer or PFFs (expressed as monomer equivalent concentration) as indicated. MJF-R1 was used as a reporter antibody to determine affinity for each form of α-Syn. FIG. 1C is a pair of graphs depicting the affinity of mAb Syn9068.13.01 for human monomeric (top) and fibrillar (PFF) (bottom) α-Syn measured by sandwich ELISA. […] After blocking, these were incubated with various concentrations of α-Syn monomer or PFFs (expressed as monomer equivalent concentration) as indicated. […]
The affinity of three mAbs from the 9000 series for human monomeric and fibrillar (PFF) α-Syn was measured by sandwich ELISA. […]

Inhibition in neuron assay (Hu PFFs) [1]: 85% | Inhibition in neuron assay (Ms PFFs) [2]: ~90% | Recognition of Hu vs. Ms αSyn (fold) [3]: 1 fold
B1: Syn9068.13.01 (antibody, IgG1, V domains shown)
VH: EVHLVESGGGLVQPKGSLKLSCAASGFTFNTYAMHWVRQAPGKGLEWVARIRNKSNNYATYYADSVKDRFTISRDDSQSMLFLQMDNLKTEDTAIYYCVRGGLSPFDYWGQGTTLTVSS
VL: QIVLTQSPAIMSASPGEKVTMTCSASSSVTYMHWYQQKSGTSPKRWIYDTSKLASGVPARFSGSGSGTSYSLTISSMEAEDAATYYCQQWSSNPPTFGGGTKLEIR
notes: also called mAb Syn9068.13.01; MHC993

Inhibition in neuron assay (Hu PFFs) [1]: > 95% | Inhibition in neuron assay (Ms PFFs) [2]: > 95% | Recognition of Hu vs. Ms αSyn (fold) [3]: 1.4 fold | Selective binding to PFFs (fold over monomer) [4]: 30 fold
B2: Syn9048.04.07 (antibody, IgG1, V domains shown)
VH: QVQLQQSGPELVKPGASVRISCKASGYTFTTFYLHWVKQRPGQGLEWIGWIYPVNVKIKYSERFKGKATLTADKSSSTAYMQLGSLTSEDSAVYFCVRGGRGLDYWGQGTTLTVSS
VL: NIMMTQSPSSLAVSAGEKVTMSCKSSQSVLYSSNQKNYLAWYQQKPGQSPKMLIYWASFRESGVPDRFTGSGSGTDFTLTISSVQAEDLAVYYCHQYLSLFTFGSGTKLEIK
notes: also called mAb Syn9048.04.07; MHC992

Inhibition in neuron assay (Hu PFFs) [1]: 80% | Inhibition in neuron assay (Ms PFFs) [2]: 50% | Recognition of Hu vs. Ms αSyn (fold) [3]: 1.1 fold | Selective binding to PFFs (fold over monomer) [4]: 100 fold
B3: Syn9063.26.22 (antibody, IgG2b, V domains shown)
VH: QVQLKQSGPGLVQPSQSQSLTCTVSGFSLTSYGVHWVRQPLGKGLEWLGVIWSGGSTDYNAAFISRLSIRKDNSKSQVFFKMNSLQADDTAIYYCARTFTTSTSAWFAYWGQGTLVTVSA
VL: QIVLTQSPAIMSASPGEKVTMTCSASSSVSYMYWYQQKPGSSPRLLIYDTSKLASGVPVRFSGSGSGTSYSLTISRMEAEDAATYYCQQWRSYPPTFGAGTKLELK
notes: also called mAb Syn9063.26.22; MHC978
